1 molecule from patent US20210040187A1 (INSTITUT PASTEUR, published 2021) can be followed below.

The test deals with T1, acetylcholine receptor alpha 7 sub-unit (AchR alpha7) (UniProt P36544 23-502).
T1 construct: whole, on cells
The test can be described thus: flow cytometry on AchR alpha7-expressing HEK293 cells, 30 min at 4 C. Background: In flow cytometry, cells or beads pass a laser one at a time.

T1 sequence (P36544 23-502): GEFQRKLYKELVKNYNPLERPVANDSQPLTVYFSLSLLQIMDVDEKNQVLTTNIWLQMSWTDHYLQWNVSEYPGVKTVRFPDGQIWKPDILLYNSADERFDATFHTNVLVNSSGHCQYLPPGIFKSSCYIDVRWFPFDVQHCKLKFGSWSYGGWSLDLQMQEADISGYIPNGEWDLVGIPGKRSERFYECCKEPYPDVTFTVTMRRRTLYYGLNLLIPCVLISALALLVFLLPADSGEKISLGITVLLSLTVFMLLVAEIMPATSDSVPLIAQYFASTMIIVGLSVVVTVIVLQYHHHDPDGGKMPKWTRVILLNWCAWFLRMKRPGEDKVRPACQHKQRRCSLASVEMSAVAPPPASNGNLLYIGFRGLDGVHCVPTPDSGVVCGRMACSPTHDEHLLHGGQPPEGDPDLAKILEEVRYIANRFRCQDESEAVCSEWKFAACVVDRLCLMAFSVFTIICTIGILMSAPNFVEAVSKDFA

B1: VHH2 (MA peptide, VHH A12, StrepTag, NV; lacking the RDP1 sequence) (VHH)
chain: MAEVQLQASGGGLAQPGGSLRLSVTVSGSIDVINNMAWYRQAPGNARELVATITSGFSTNYASSVKGRFTISRDNAKKAVYLQMNSLKPEDTADYYSKVHLIRLGAARAYDYWGQGTQVTVSGGGSAWSHPQFEKAAARRVNRSEPTQHNLRGTGREVSVTPQSGKIISSWEVHGQQTRL
For the molecule B1, the binding result was “no binding (tested: 20 pg)”.
